Assay results taken from patent US20160115500A1 (University of California, published 2016).

Experiments:
Assay in all cases: cell-based or functional assay
GST-HAB1 = target: T1, GST-HAB1 (UniProt Q9CAJ0 23-511)
T1 sequence (looked up): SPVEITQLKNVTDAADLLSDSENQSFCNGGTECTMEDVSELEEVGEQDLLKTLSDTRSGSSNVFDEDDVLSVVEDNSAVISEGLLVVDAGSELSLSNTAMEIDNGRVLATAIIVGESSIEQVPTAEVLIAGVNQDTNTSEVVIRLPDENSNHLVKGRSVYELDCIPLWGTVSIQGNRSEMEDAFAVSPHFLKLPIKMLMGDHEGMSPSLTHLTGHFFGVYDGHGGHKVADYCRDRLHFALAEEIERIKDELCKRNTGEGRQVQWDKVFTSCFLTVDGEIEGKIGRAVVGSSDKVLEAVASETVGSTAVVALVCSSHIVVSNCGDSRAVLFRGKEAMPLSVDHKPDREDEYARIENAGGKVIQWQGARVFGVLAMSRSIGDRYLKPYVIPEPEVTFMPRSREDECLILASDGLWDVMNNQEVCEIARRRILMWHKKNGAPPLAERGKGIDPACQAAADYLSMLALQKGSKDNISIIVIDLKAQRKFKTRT

GST-ABI1 = target: T2, GST-ABI1 (UniProt P49597 1-434)
T2 sequence (looked up): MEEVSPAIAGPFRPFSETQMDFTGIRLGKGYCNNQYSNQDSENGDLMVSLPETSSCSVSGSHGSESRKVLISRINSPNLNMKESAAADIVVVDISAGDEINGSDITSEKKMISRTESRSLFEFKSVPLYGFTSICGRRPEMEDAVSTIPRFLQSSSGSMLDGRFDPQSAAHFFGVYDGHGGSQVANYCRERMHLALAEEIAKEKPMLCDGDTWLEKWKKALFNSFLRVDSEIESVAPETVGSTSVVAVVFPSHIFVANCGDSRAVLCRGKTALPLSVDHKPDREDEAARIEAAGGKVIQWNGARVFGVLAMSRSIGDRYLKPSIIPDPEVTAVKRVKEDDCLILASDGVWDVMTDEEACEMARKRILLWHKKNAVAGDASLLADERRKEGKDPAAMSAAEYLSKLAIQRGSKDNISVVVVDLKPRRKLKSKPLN

GST-ABI2 = target: T3, GST-ABI2 (UniProt O04719 1-423)
T3 sequence (looked up): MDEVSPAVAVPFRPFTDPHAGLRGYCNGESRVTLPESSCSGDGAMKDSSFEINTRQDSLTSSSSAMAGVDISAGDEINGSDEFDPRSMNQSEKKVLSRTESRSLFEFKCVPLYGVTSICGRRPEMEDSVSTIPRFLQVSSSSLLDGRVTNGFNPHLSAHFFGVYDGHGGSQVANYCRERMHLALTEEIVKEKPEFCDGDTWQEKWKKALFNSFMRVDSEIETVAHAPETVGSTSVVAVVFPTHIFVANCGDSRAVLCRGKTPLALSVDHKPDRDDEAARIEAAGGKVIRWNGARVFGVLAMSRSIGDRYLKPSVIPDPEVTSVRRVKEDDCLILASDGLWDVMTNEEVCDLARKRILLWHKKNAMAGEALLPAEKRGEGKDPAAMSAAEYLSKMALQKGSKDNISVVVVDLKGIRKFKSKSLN

B1: 6×-His-PYR1^MANDI (receptor)
chain: HHHHHHMPSELTPEERSELKNSIAEFHTYQLDPGSCSSLHAQRIHAPPELVWSIVRRFDKPQTHRHFIKSCSVEQNFEMRVGCTRDIIVISGLPANTSTERLDILDDERRVTGASIIGGEHRLTNYKGVTTVHRFEKENRIWTVVLESYVVDMPEGNSEDDTRMLADTVVKLNLQKLATVAEAMARNSGDGSGSQVT
GST-HAB1
  IC50 of mandipropamid mediated inhibition of PP2C activity (4-methylumbelliferyl-phosphate substrate): 0.0322 µM
GST-ABI1
  IC50 of mandipropamid mediated inhibition of PP2C activity (4-methylumbelliferyl-phosphate substrate): 0.0268 µM
GST-ABI2
  IC50 of mandipropamid mediated inhibition of PP2C activity (4-methylumbelliferyl-phosphate substrate): 0.0755 µM
